Columns and labels:
ICR mice [1] = experiment: Effect of anti-Aβ antibody intravenous administration on mouse cognitive function impairment by AD patient CSF (Y-maze test, Example 4); type: in vivo; conditions: next day 10 μl AD patient CSF intraventricular, FIG. 4
Protocol: Next, mice that had intravenous administration of anti-Aβ oligomer antibody were measured for changes in cognitive function after AD patient CSF administration, using a Y-maze test. As the anti-Aβ oligomer antibody, an anti-Aβ oligomer humanized antibody 6E4HV0LV0 was produced according to the method disclosed in WO2011/016567 and known methods, and used in the experiment.
ICR mice were intravenously administered with 3 mg/kg of human IgG4 (Sigma-Aldrich), or 0.3 mg/kg, 1 mg/kg, or 3 mg/kg of 6E4HV0LV0.
On the next day, 10 μl of physiological saline (hereinafter, “Sham”) or the same amount of AD patient CSF (Precision Med) was administered into the cerebral ventricles of the mice under isoflurane anesthesia. Each mouse was then tested by Y-maze test in the same manner as in Example 1 to determine spontaneous alternation (%). The AD patient CSF and the physiological saline were administrated in 5 μl dose into each of the left and right cerebral ventricles.
In the following, mice that had intravenous administration of human IgG4, and intraventricular administration of Sham will be identified by using the notation “human IgG4 i.v.-Sham administered group.” Similar notations are used for mice administered with other samples.

ICR mice [2] = experiment: Effect of anti-Aβ antibody pretreatment of AD patient CSF on mouse cognitive function impairment (Y-maze test, Example 5); type: in vivo; conditions: 10 μl intraventricular, FIG. 5
Protocol: For the purpose of evaluating a sample that more accurately reflects the actual clinical sample, the cognitive function of mice administered with an AD patient CSF pretreated with 6E4HV0LV0 was measured by Y-maze test.
6E4HV0LV0 was added to AD patient CSF (Precision Mod) to make the final concentration 1 ng/ml, 10 ng/ml, or 100 ng/ml, and the mixture was incubated at room temperature for about 1 hour.
Artificial cerebrospinal fluid [artificial spinal fluid (Otsuka Pharmaceutical Co., Ltd.) supplemented with 0.02 w/v % human serum albumin (Sigma-Aldrich)](hereinafter, “vehicle”) was added to AD patient CSF or physiological saline (hereinafter, “Sham”), and the mixture was incubated at room temperature. The prepared sample was preserved at −80° C., and used for the experiment after being thawed at room temperature on the day of the Y-maze testing.
The sample (10 μl each) was administered into the cerebral ventricles of ICR mice under isoflurane anesthesia, and each mouse was tested by Y-maze test in the same manner as in Example 1 to determine spontaneous alternation (%). Each sample was administrated in 5 μl dose into each the left and right cerebral ventricles of mice.
In the following, the sample with the AD patient CSF plus the vehicle will be identified by the notation “vehicle-AD CSF”. Similar notations are used for other samples.

ICR mice [3] = experiment: Blind measurement of changes in cognitive function of mice after 6E4HV0LV0 pretreatment of CSF (Y-maze test, Example 6); type: in vivo, mouse; conditions: for Percentage improvement by 6E4HV0LV0 treatment (%): 10 μl intraventricular; for improvement of spontaneous alternation by 6E4HV0LV0 pretreatment: 10 ng/ml
Protocol: The cognitive function of mice administered with multiple normal CSFs or AD patient CSFs was measured in blind experiment by performing a Y-maze test in the same manner as in Example 1. The effect of 6E4HV0LV0 pretreatment was also examined at the same time. The experiment was conducted by separating testers who is responsible for dispensing normal CSFs or AD patient CSFs and preparing a 6E4HV0LV0-pretreated AD patient CSF for blind experiment, and who is responsible for administering the samples to mice, and conducting the Y-maze test.
Tester (A) randomly assigned numbers to the dispensed normal CSFs (Precision Med) and AD patient CSFs (Precision Med) for blind experiment. For the AD patient CSFs, samples were also prepared by adding 6E4HV0LV0 to each dispensed CSF to make the final concentration 10 ng/ml, and incubating the mixture at room temperature for about 1 hour. The dispensed and prepared CSF samples were all preserved at −80° C. until the day of the Y-maze testing.
On the day of the Y-maze testing, tester (B) received the samples prepared by tester (A) for blind experiment, and thawed the samples at room temperature. Each sample (10 μl) or physiological saline (10 μl; hereinafter, “Sham”) was administered into the cerebral ventricles of ICR mice under isoflurane anesthesia, and the mice were tested by Y-maze test in the same manner as in Example 1 to determine spontaneous alternation (%). The sample and the physiological saline were administrated in 5 μl dose into each of the left and right cerebral ventricles of mice.
A Y-maze test that used the AD patient CSFs pretreated with 6E4HV0LV0 was conducted at the same time. Percentage improvement of mouse spontaneous alternation by 6E4HV0LV0 pretreatment was calculated for each mouse by using the Formula (3) below. The results are shown under the column heading “Percentage improvement by 6E4HV0LV0 treatment (%)” in Table 1. Percentage improvement (%) of mouse spontaneous alternation by 6E4HV0LV0 pretreatment={(spontaneous alternation of mouse administered with AD patient CSF pretreated with 6E4HV0LV0)−(spontaneous alternation of mouse administered with the same AD patient CSF without 6E4HV0LV0 pretreatment)}/{(spontaneous alternation of Sham administered group)−(spontaneous alternation of mouse administered with the same AD patient CSF without 6E4HV0LV0 pretreatment)}×100 Formula (3)

B1: 6E4HV0LV0: anti-Aβ oligomer humanized antibody, VH SEQ ID NO: 1, VL SEQ ID NO: 2, produced according to WO2011/016567 (antibody, V domains shown)
VH: QVQLVQSGAEVKKPGASVKVSCKASGYTFTSYWMHWVRQAPGQGLEWMGEINPRNGGTNNNENFKRRVTITADTSTSTAYMELSSLRSEDTAVYYCARDGNYDPFAYWGQGTLVTVSS
VL: DIVMTQSPLSLPVTPGEPASISCRSSQSLVHSNGNTYLHWYLQKPGQSPQLLIYKVSNRFSGVPDRFSGSGSGTDFTLKISRVEAEDVGVYYCSQSTHVPPYTFGQGTKLEIK
ICR mice [1]; 3 mg/kg i.v.
  spontaneous alternation compared to the human IgG4 i.v.-AD CSF administered group: significantly higher
  spontaneous alternation compared to the human IgG4 i.v.-Sham administered group: recovering to the same levels
ICR mice [1]; 6E4HV0LV0 0.3, 1 or 3 mg/kg i.v.
  spontaneous alternation, dose response: increased with increase in the dose
ICR mice [2]; AD patient CSF pretreated at final concentration of 10 ng/ml or 100 ng/ml
  spontaneous alternation compared to the vehicle-AD CSF administered group: higher
ICR mice [2]; AD patient CSF pretreated at final concentration of 100 ng/ml
  spontaneous alternation compared to the vehicle-Sham administered group: recovering to the same levels
ICR mice [3]; AD patient CSF 8006_Visit 3 pretreated with 10 ng/ml
  Percentage improvement by 6E4HV0LV0 treatment (%): 80.2%
ICR mice [3]; AD patient CSF 8014_Visit 4 pretreated with 10 ng/ml
  Percentage improvement by 6E4HV0LV0 treatment (%): 59.7%
ICR mice [3]; AD patient CSF 8026_Visit 2 pretreated with 10 ng/ml
  Percentage improvement by 6E4HV0LV0 treatment (%): 14.5%
ICR mice [3]; AD patient CSF 8029_Visit 2 pretreated with 10 ng/ml
  Percentage improvement by 6E4HV0LV0 treatment (%): −11.8%
ICR mice [3]; AD patient CSF 8056_Visit 9 pretreated with 10 ng/ml
  Percentage improvement by 6E4HV0LV0 treatment (%): 86.8%
ICR mice [3]; AD patient CSF 8057_Visit 8 pretreated with 10 ng/ml
  Percentage improvement by 6E4HV0LV0 treatment (%): 59.3%
ICR mice [3]; AD patient CSF 8060_Visit 6 pretreated with 10 ng/ml
  Percentage improvement by 6E4HV0LV0 treatment (%): 46.0%
ICR mice [3]; AD patient CSF 8061_Visit 5 pretreated with 10 ng/ml
  Percentage improvement by 6E4HV0LV0 treatment (%): 65.6%
ICR mice [3]; AD patient CSF 8076_Visit 8 pretreated with 10 ng/ml
  Percentage improvement by 6E4HV0LV0 treatment (%): 68.3%
ICR mice [3]; AD patient CSF 8091_Visit 5 pretreated with 10 ng/ml
  Percentage improvement by 6E4HV0LV0 treatment (%): 56.3%
ICR mice [3]; AD patient CSF 8092_Visit 3 pretreated with 10 ng/ml
  Percentage improvement by 6E4HV0LV0 treatment (%): 87.7%
ICR mice [3]; AD patient CSF 8108_Visit 6 pretreated with 10 ng/ml
  Percentage improvement by 6E4HV0LV0 treatment (%): 82.0%
ICR mice [3]; AD patient CSF 8109_Visit 5 pretreated with 10 ng/ml
  Percentage improvement by 6E4HV0LV0 treatment (%): 90.7%
ICR mice [3]; AD patient CSF 8189_Visit 3 pretreated with 10 ng/ml
  Percentage improvement by 6E4HV0LV0 treatment (%): 83.1%
ICR mice [3]; AD patient CSF 8211_Visit 2 pretreated with 10 ng/ml
  Percentage improvement by 6E4HV0LV0 treatment (%): 90.0%
ICR mice [3]; in 6 out of the 15 AD patient CSF samples
  improvement of spontaneous alternation by 6E4HV0LV0 pretreatment: ≥ 40%
ICR mice [3]; in 7 out of the 15 AD patient CSF samples
  improvement of spontaneous alternation by 6E4HV0LV0 pretreatment: ≥ 80%
ICR mice [3]; the one normal CSF (1 out of 11) that impaired cognitive function
  effect of 6E4HV0LV0 pretreatment on cognitive function impairment by normal CSF: did not improve
